Here are results for 4 molecules from US20220226430A1 (TEXAS A AND M UNIVERSITY SYSTEM, published 2022).

The target of this assay is Clostridium difficile toxin B (TcdB) from C. difficile strain VPI 10463 (ribotype 087) (Clostridium difficile strain VPI 10463, UniProt P18177 2-2366). Nature of the assay: cell-based or functional assay.
Clostridium difficile toxin B (TcdB) from C. difficile strain VPI 10463 (ribotype 087), sequence (P18177 2-2366): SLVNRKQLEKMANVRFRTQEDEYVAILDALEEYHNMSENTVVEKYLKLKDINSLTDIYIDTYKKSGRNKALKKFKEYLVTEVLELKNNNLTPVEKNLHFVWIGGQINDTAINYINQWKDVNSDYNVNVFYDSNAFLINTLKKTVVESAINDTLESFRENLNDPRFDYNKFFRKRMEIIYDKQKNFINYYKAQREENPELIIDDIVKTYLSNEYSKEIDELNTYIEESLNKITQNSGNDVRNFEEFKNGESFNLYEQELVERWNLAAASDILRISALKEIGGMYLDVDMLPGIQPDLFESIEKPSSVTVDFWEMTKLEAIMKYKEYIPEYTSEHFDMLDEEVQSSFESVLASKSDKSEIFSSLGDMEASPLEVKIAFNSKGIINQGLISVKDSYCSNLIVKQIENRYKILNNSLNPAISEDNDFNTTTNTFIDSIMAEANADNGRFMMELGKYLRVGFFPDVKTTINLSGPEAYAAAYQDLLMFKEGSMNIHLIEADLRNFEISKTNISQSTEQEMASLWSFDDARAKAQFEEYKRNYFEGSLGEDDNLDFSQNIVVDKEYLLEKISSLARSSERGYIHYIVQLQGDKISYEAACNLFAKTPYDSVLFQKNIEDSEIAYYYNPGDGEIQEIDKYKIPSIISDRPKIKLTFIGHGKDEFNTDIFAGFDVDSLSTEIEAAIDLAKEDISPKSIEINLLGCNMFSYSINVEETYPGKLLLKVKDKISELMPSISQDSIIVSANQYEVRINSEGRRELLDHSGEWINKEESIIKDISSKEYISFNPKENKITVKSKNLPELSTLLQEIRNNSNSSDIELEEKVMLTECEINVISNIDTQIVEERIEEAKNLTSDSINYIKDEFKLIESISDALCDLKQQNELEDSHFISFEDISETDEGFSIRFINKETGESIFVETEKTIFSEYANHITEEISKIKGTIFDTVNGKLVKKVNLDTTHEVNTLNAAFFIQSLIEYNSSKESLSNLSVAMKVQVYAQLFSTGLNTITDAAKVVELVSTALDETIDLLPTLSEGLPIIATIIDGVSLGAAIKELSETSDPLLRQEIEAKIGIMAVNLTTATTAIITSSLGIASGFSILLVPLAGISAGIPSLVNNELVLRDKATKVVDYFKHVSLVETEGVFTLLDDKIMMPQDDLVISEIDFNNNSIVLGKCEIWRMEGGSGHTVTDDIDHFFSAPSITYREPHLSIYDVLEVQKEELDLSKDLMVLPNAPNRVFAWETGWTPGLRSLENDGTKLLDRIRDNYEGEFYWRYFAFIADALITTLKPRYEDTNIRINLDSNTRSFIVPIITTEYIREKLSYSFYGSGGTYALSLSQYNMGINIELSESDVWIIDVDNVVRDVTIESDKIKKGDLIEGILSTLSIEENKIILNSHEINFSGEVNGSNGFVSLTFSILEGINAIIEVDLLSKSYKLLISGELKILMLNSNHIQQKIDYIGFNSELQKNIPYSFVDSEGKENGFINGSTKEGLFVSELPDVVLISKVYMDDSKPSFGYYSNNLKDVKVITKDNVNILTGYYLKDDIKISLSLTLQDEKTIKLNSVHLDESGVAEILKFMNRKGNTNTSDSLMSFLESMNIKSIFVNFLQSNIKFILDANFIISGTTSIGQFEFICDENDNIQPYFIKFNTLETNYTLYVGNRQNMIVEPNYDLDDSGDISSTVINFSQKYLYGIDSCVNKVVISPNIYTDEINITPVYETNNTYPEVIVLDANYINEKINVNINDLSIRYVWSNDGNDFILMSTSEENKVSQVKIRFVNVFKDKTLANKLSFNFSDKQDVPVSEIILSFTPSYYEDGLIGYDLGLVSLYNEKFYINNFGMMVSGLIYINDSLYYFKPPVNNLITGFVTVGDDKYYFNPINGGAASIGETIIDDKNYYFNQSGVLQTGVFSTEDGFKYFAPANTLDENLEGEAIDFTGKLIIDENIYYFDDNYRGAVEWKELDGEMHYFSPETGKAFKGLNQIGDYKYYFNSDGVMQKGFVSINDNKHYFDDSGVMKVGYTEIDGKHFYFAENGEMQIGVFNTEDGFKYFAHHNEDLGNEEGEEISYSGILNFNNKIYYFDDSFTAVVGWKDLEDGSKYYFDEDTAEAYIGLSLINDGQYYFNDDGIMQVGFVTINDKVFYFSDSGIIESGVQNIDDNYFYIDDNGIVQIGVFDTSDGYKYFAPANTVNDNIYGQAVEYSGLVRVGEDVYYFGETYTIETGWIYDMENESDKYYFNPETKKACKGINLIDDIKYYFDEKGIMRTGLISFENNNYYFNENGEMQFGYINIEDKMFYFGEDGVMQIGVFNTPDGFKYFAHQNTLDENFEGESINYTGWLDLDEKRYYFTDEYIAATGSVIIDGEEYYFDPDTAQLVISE

B1: DARPin U3 (designed binder, not shown: small tags and cut ends)
chain: GSDLGKKLLEAARAGQDDEVRILMANGADVNADDRIGMTPLHLAAIGGHLEIVEVLLKNGADVNADDVHGRTPLHLAAGRGHLEIVEVLHGADVNAPDRWGRTPLHLAAHHGHLEIVEVLLKYGADVNAQDKFGKTAFDISIDSGNEDLAEILQSSS
As for B1, the “toxin-neutralization EC50 (Vero cells)” value is more than 25 nM.

B2: DARPin 3.5B (designed binder, not shown: small tags and cut ends)
chain: GSDLGKKLLEAARAGQDDEVRILMANGADVNAKDTFGETPLHLAAWKGHLEIVEVLLKYGADVNASDLLGRTPLHLAAWRGHLEIVEVLLKNGADVNASDTGGYTPLHLAAALGHLEIVEVLLKHGADVNAQDKFGKTAFDISIDNGNEDLAEILQSSS
Regarding B2, the “toxin-neutralization EC50” value amounted to 13.3 nM.

B3: DARPin 1.2E (designed binder, not shown: small tags and cut ends)
chain: GSDLGKKLLEAARAGQDDEVRILMANGADVNAYDARGVTPLHLAAFSGHLEIVEVLLKNGADVNAIDVIGMTPLHLAAWIGHLEIVEVLLKHGADVNAVDRSGNTPLHLAAWLGHLEIVEVLLKYGADVNAQDKFGKTAFDISIDNGNEDLAEILQSSS
Regarding B3, the “EC50 of TcdB neutralization (Vero cells, CellTiterGlo)” value is 2.4 nM.

B4: DARPin 1.4E (designed binder, not shown: small tags and cut ends)
chain: GSDLGKKLLEAARAGQDDEVRILMANGADVNATDHLGVTPLHLAAVLGHLEIVEVLLKHGADVNAYDILGRTPLHLAAWRGHLEIVEVLLKYGADVNADDTSGTTPLHLAAGEGHLEIVEVLLKYGADVNAQDKFGKTAFDISIDNGNEDLAEILQSSS
As for B4, the “EC50 of TcdB neutralization (Vero cells, CellTiterGlo)” value was found to be 3 nM.
